According to the supplement of paper PMC9732359:
± gives the uncertainty stated by the source.

Test: protein stability index of a GFP-peptide fusion (yeast GPS) (PSI 1-4); higher = more stable; sorted into four equal gates, so the index is relative within each strain
Procedure, shortened: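 Yeast carrying a pooled library were grown to mid-log phase in leucine-free medium. Each library plasmid expresses Cherry and has a tiled 17-residue yeast protein peptide fused downstream of GFP. Cells were sorted into four equal gates by GFP/Cherry ratio, and plasmids from each gate were PCR-amplified, Illumina-sequenced and assigned to strains by barcode. Summing, across gates, the read frequency times the gate number gave each peptide's protein stability index.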

Sequence	protein stability index (doa10∆)	protein stability index (pdr5∆)	protein stability index (san1∆)	protein stability index (ubr1∆)
SMKYDNGVIIAADNLGS [PRE4]	2.66 ± 0.15	3.35 ± 0.088	2.5 ± 0.13	3.06 ± 0.11
DDFTNELKAELDRYKRE [SEM1]	3.09 ± 0.17	3.36 ± 0.14	2.97 ± 0.11	3.47 ± 0.24
LNSTLESLYDLIEFQPS [MED6]	2.8 ± 0.049	2.85 ± 0.046	2.88 ± 0.039	2.76 ± 0.048
LGNHAITIDSVVDANGC [YMR129W/POM152]	2.42 ± 0.096	1.95 ± 0.08	2.56 ± 0.07	2.79 ± 0.085
TKPNVLNDPSLKIQFIL [SIN4]	2.03 ± 0.043	2.36 ± 0.055	2.57 ± 0.049	2.538 ± 0.025
NAFRKEELLLKDLEIRK [GAL11]	–	3.09 ± 0.098	3.18 ± 0.079	3.03 ± 0.13
SEFLNVPFESLQGVTYP [YIL149C/MLP2]	2.94 ± 0.086	2.56 ± 0.078	2.72 ± 0.091	2.96 ± 0.063
DTLDSKSNGSSDDDNIG [ISW2]	3.26 ± 0.09	3.23 ± 0.074	3.11 ± 0.057	3.03 ± 0.067
KNKDSLVSNPHEIYGSM [SRB4]	3.04 ± 0.084	3.09 ± 0.09	2.96 ± 0.07	3.26 ± 0.14
LKERAKNISSQLDSKLM [YGR119C/NUP57]	1.2 ± 0.2	1.46 ± 0.22	1.56 ± 0.26	1.28 ± 0.13
DLISEILKWVQWSRIVL [MED1]	3.48 ± 0.12	3.33 ± 0.11	3.08 ± 0.064	3.54 ± 0.061
VQRTMLELLNQLDGFSS [RPT5]	2.99 ± 0.078	2.88 ± 0.072	2.83 ± 0.063	2.99 ± 0.05
GVPDDKWEQTYKKPTGG [FAS1]	3.38 ± 0.07	3.29 ± 0.1	3.2 ± 0.093	3.09 ± 0.069
HPNRVLEHLHSTAFQNT [COR1]	2.79 ± 0.041	2.92 ± 0.047	2.4 ± 0.051	2.92 ± 0.045
FDMTNHYNDSQQLRTWK [SRB8]	2.99 ± 0.079	3.01 ± 0.084	3 ± 0.078	2.9 ± 0.061
ELAQYMKTNVHTQANEP [RGR1]	2.81 ± 0.081	2.99 ± 0.086	2.75 ± 0.064	2.75 ± 0.068
ESWFKALAGSEINWRHA [FAS1]	3.31 ± 0.11	2.54 ± 0.081	2.63 ± 0.083	2.59 ± 0.057
LNESDCLEACSFILSSL [YDL116W/NUP84]	2.62 ± 0.056	2.58 ± 0.052	2.96 ± 0.052	2.65 ± 0.041
LLEPPAKELQGIDPDET [RPO31]	3.19 ± 0.15	3.11 ± 0.14	3.31 ± 0.082	3.18 ± 0.12

Sequence	protein stability index (doa10∆)	protein stability index (pdr5∆)	protein stability index (san1∆)	protein stability index (ubr1∆)
AFGGSATTGGGLFGNKP [YGL172W/NUP49]	3.26 ± 0.091	2.7 ± 0.26	–	3.16 ± 0.12
SKKAEKTGTKPAAVFAE [RPL4B]	2.52 ± 0.068	2.8 ± 0.084	2.44 ± 0.072	2.75 ± 0.061
TLQLYMVHREFLKLANG [RGR1]	1.49 ± 0.047	1.63 ± 0.05	2.07 ± 0.058	2.28 ± 0.049
AVKLGDLKKFTSTITKY [RPN3]	2.1 ± 0.056	2.51 ± 0.044	2.27 ± 0.066	2.56 ± 0.035
LDPINLPLDSQDDEYVK [PRP8]	2.83 ± 0.075	3.01 ± 0.066	3.14 ± 0.093	3.05 ± 0.045
SRKQKIAKTFTVDVSSP [RPL22A]	2.81 ± 0.08	3.1 ± 0.077	2.95 ± 0.069	2.68 ± 0.05
KTARGKAALERLKVFEG [RPL16A]	2.28 ± 0.15	2.37 ± 0.089	2.95 ± 0.1	2.1 ± 0.12
LSLVYEIGGSDLKESMV [ECM29]	2.98 ± 0.11	3.32 ± 0.12	3.36 ± 0.051	3.28 ± 0.11
KNMPVIYNNIVSNIEGI [RGR1]	2.43 ± 0.055	2.69 ± 0.066	2.5 ± 0.05	2.56 ± 0.041
MGGPKQKGITSYAVSPY [QCR8]	2.46 ± 0.17	2.45 ± 0.2	2.25 ± 0.12	1.63 ± 0.21
ATSSTNANAGLFNKPPS [YOR098C/NUP1]	2.86 ± 0.053	3.06 ± 0.073	3.05 ± 0.079	3.3 ± 0.058
MVGLASGNDSMAGKVLI [BRR2]	3.24 ± 0.1	3.4 ± 0.092	3.21 ± 0.091	3.47 ± 0.058
FGAPNNPNSTAITADLG [YGL172W/NUP49]	3.04 ± 0.094	3 ± 0.078	3.03 ± 0.058	2.84 ± 0.087
ELGNMTMLITGQRPDRA [SIN4]	2.54 ± 0.09	2.83 ± 0.056	2.69 ± 0.09	2.31 ± 0.073
IGGLIPQWKRHLEEYGY [YCS4]	2.47 ± 0.068	2.83 ± 0.065	1.9 ± 0.14	2.9 ± 0.057
SLSAYNLTDEGYQWGEE [PRP8]	3.33 ± 0.22	3.12 ± 0.15	–	3.33 ± 0.19
TYVLNTWTNSKIFIKDP [YML103C/NUP188]	2 ± 0.056	2.15 ± 0.046	2.3 ± 0.058	2.23 ± 0.034
RHGFNRSNTGALMRCSF [RPO21]	2.71 ± 0.059	3.01 ± 0.064	2.85 ± 0.061	2.88 ± 0.079
TLAERQQLAYDLSISAL [RPN9]	2.39 ± 0.078	2.47 ± 0.13	2.77 ± 0.24	2.95 ± 0.093
